Laboratory results reported in patent US20130115627A1 (AGENCY FOR SCIENCE TECHNOLOGY AND RESEARCH, published 2013).

Target: T1, PODXL on the surface of hESCs (human, UniProt O00592 23-558, glycosylated (sites not given))
T1 construct: also called human embryonic stem cells
T1 sequence: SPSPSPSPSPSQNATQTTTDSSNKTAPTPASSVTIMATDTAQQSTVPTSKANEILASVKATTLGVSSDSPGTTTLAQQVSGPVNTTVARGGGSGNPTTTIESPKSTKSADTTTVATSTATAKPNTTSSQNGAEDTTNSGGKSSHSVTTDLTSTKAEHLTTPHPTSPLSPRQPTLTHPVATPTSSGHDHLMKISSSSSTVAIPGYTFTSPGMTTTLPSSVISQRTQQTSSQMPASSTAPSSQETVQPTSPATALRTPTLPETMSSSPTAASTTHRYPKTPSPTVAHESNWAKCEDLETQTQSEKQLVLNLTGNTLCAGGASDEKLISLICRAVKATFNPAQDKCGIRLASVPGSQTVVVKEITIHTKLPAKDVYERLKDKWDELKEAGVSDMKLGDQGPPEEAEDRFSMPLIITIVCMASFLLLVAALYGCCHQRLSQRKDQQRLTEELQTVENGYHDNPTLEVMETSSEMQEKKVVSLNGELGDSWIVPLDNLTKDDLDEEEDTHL
Experiment: kinetics of binding to PODXL on the surface of hESCs; method not stated

Kd: 40 nM
koff: 0.0029 s⁻¹
kon: 71000 M⁻¹ s⁻¹
B1: mAb 84 (antibody, V domains shown)
VH: QVQLQQSGGGLVQPGGSMKLSCVASGFTFSNYWMNWVRQSPEKGLEWVAEIRLKSNNYATHYAESVKGRFTISRDDSKSSVYLQMNNLRAEDTGIYYCTGERAWGQGTTVTVSS
VL: DIELTQSPAIMSASPGEKVTMTCSASSSVNYMYWYQQKPGSSPRLLIYDTSNLASGVPVRFSGSGSGTSYSLTISRMEAEDAATYYCQQWSSYPYTFGGGTKLEIKR
